Data as given in US20090098103A1.

Key:
Assay in all cases: cell-based or functional assay
[1] = target: FVIIa variant CB590 D196R/K197M/K199E/R290E (human) (UniProt P08709)
[2] = target: FVIIa variant CB592 M298Q (human) (UniProt P08709)
[3] = target: FVIIa variant CB604 D196I (human) (UniProt P08709)
[4] = target: FVIIa variant CB698 R290Q (human) (UniProt P08709)
[5] = target: FVIIa variant CB609 K341Q (human) (UniProt P08709)
[6] = target: FVIIa variant CB588 D196R/K197E/K199E/R290E (human) (UniProt P08709)
[7] = target: FVIIa variant CB569 K341R (human) (UniProt P08709)
[8] = target: FVIIa variant CB558 K197E (human) (UniProt P08709)
[9] = target: FVIIa variant CB579 D196R/R290E (human) (UniProt P08709)
[10] = target: FVIIa variant CB692 K197E/G237V/M298Q/K341Q (human) (UniProt P08709)
[11] = target: FVIIa variant CB614 D196W/K197L (human) (UniProt P08709)
[12] = target: FVIIa variant CB556 D196A (human) (UniProt P08709)
[13] = target: FVIIa variant CB693 K197E/K199E/G237V/M298Q/K341Q (human) (UniProt P08709)
[14] = target: FVIIa variant CB591 L305V/S314E/L337A/F374Y (human) (UniProt P08709)
[15] = target: FVIIa variant CB597 K197F (human) (UniProt P08709)
[16] = target: FVIIa variant CB593 V158D/E296V/M298Q (human) (UniProt P08709)
[17] = target: FVIIa variant CB691 K197E/K199E/K341Q (human) (UniProt P08709)
[18] = target: FVIIa variant CB599 K197M (human) (UniProt P08709)
[19] = target: FVIIa variant CB637 K197E/K341Q (human) (UniProt P08709)
[20] = target: FVIIa variant CB608 G237V (human) (UniProt P08709)
[21] = target: FVIIa variant CB638 K197L/K341Q (human) (UniProt P08709)
[22] = target: FVIIa variant CB697 R290N (human) (UniProt P08709)
[23] = target: FVIIa variant CB611 D196L/K197L (human) (UniProt P08709)
[24] = target: FVIIa variant CB564 K199A (human) (UniProt P08709)
[25] = target: FVIIa variant CB562 K199D (human) (UniProt P08709)
[26] = target: FVIIa variant CB581 D196R/R290D (human) (UniProt P08709)
[27] = target: FVIIa variant CB694 K199E/K341Q (human) (UniProt P08709)
[28] = target: FVIIa variant CB617 D196V/K197E (human) (UniProt P08709)
[29] = target: FVIIa variant CB557 K197D (human) (UniProt P08709)
[30] = target: FVIIa variant CB603 D196L (human) (UniProt P08709)
[31] = target: FVIIa variant CB733 K341N (human) (UniProt P08709)
[32] = target: FVIIa variant CB671 K197E/G237V/K341Q (human) (UniProt P08709)
[33] = target: wild-type Factor VII polypeptide (CB553-02), activated (FVIIa) (human) (UniProt P08709)
[34] = target: FVIIa variant CB734 K341M (human) (UniProt P08709)
[35] = target: FVIIa variant CB561 K197Y (human) (UniProt P08709)
[36] = target: FVIIa variant CB615 D196F/K197E (human) (UniProt P08709)
[37] = target: FVIIa variant CB580 D196K/R290E (human) (UniProt P08709)

Human Recombinant TFPI (R&D Systems) (from UniProt P10646 29-282)
IC50 of TFPI inhibition of FVIIa/TF [1]: 66 nM
TFPI fold resistance (fold vs wild-type FVIIa) [1]: 0.9
pIC50 of TFPI inhibition of FVIIa/TF [1]: 7.2
IC50 of TFPI inhibition of FVIIa/TF [2]: 35 nM
TFPI fold resistance (fold vs wild-type FVIIa) [2]: 0.5
pIC50 of TFPI inhibition of FVIIa/TF [2]: 7.5
TFPI fold resistance (fold vs wild-type FVIIa) [3]: < 0.3
TFPI fold resistance (fold vs wild-type FVIIa) [4]: 1.2
TFPI fold resistance (fold vs wild-type FVIIa) [5]: 12.2
IC50 of TFPI inhibition of FVIIa/TF [6]: 28 nM
TFPI fold resistance (fold vs wild-type FVIIa) [6]: 0.4
pIC50 of TFPI inhibition of FVIIa/TF [6]: 7.6
IC50 of TFPI inhibition of FVIIa/TF [7]: 300 nM
TFPI fold resistance (fold vs wild-type FVIIa) [7]: 4.1
pIC50 of TFPI inhibition of FVIIa/TF [7]: 6.5
IC50 of TFPI inhibition of FVIIa/TF [8]: 310 nM
TFPI fold resistance (fold vs wild-type FVIIa) [8]: 1.3
pIC50 of TFPI inhibition of FVIIa/TF [8]: 6.5
IC50 of TFPI inhibition of FVIIa/TF [9]: 28 nM
TFPI fold resistance (fold vs wild-type FVIIa) [9]: 0.4
pIC50 of TFPI inhibition of FVIIa/TF [9]: 7.6
TFPI fold resistance (fold vs wild-type FVIIa) [10]: 15.2
TFPI fold resistance (fold vs wild-type FVIIa) [11]: < 0.3
IC50 of TFPI inhibition of FVIIa/TF [12]: 5 nM
TFPI fold resistance (fold vs wild-type FVIIa) [12]: < 0.3
pIC50 of TFPI inhibition of FVIIa/TF [12]: 8.3
TFPI fold resistance (fold vs wild-type FVIIa) [13]: 22.1
IC50 of TFPI inhibition of FVIIa/TF [14]: 43 nM
TFPI fold resistance (fold vs wild-type FVIIa) [14]: 0.6
pIC50 of TFPI inhibition of FVIIa/TF [14]: 7.4
TFPI fold resistance (fold vs wild-type FVIIa) [15]: < 0.3
IC50 of TFPI inhibition of FVIIa/TF [16]: 41 nM
TFPI fold resistance (fold vs wild-type FVIIa) [16]: 0.8
pIC50 of TFPI inhibition of FVIIa/TF [16]: 7.4
TFPI fold resistance (fold vs wild-type FVIIa) [17]: 34.3
TFPI fold resistance (fold vs wild-type FVIIa) [18]: 0.3
TFPI fold resistance (fold vs wild-type FVIIa) [19]: 80.7
TFPI fold resistance (fold vs wild-type FVIIa) [20]: 0.8
TFPI fold resistance (fold vs wild-type FVIIa) [21]: 39
TFPI fold resistance (fold vs wild-type FVIIa) [22]: 1.5
TFPI fold resistance (fold vs wild-type FVIIa) [23]: < 0.3
IC50 of TFPI inhibition of FVIIa/TF [24]: 68 nM
TFPI fold resistance (fold vs wild-type FVIIa) [24]: 0.9
pIC50 of TFPI inhibition of FVIIa/TF [24]: 7.2
IC50 of TFPI inhibition of FVIIa/TF [25]: 63 nM
TFPI fold resistance (fold vs wild-type FVIIa) [25]: 0.9
pIC50 of TFPI inhibition of FVIIa/TF [25]: 7.2
IC50 of TFPI inhibition of FVIIa/TF [26]: 32 nM
TFPI fold resistance (fold vs wild-type FVIIa) [26]: 0.4
pIC50 of TFPI inhibition of FVIIa/TF [26]: 7.5
TFPI fold resistance (fold vs wild-type FVIIa) [27]: 19.1
TFPI fold resistance (fold vs wild-type FVIIa) [28]: < 0.3
IC50 of TFPI inhibition of FVIIa/TF [29]: 220 nM
TFPI fold resistance (fold vs wild-type FVIIa) [29]: 3
pIC50 of TFPI inhibition of FVIIa/TF [29]: 6.7
TFPI fold resistance (fold vs wild-type FVIIa) [30]: < 0.3
TFPI fold resistance (fold vs wild-type FVIIa) [31]: 10.7
TFPI fold resistance (fold vs wild-type FVIIa) [32]: 18.9
IC50 of TFPI inhibition of FVIIa/TF [33]: 88 nM
TFPI fold resistance (fold vs wild-type FVIIa) [33]: 1
pIC50 of TFPI inhibition of FVIIa/TF [33]: 7.1
TFPI fold resistance (fold vs wild-type FVIIa) [34]: 4.4
IC50 of TFPI inhibition of FVIIa/TF [35]: 110 nM
TFPI fold resistance (fold vs wild-type FVIIa) [35]: 1.5
pIC50 of TFPI inhibition of FVIIa/TF [35]: 7
TFPI fold resistance (fold vs wild-type FVIIa) [36]: < 0.3
IC50 of TFPI inhibition of FVIIa/TF [37]: 52 nM
TFPI fold resistance (fold vs wild-type FVIIa) [37]: 0.7
pIC50 of TFPI inhibition of FVIIa/TF [37]: 7.3
